Measured values: the supplement of paper PMC10724198
± gives the standard deviation of the averaged measurements.

What was measured:
Saccharomyces cerevisiae [1] = test: protein stability index of tFT-peptide fusion (C-terminal peptide) (PSI (0-1 scale)); higher = more stable (slower turnover)
Description: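 MPS profiling in S. cerevisiae of the tFT-X12 degron library: putative degron peptides plus stable controls, 12 aa, fused to the C-terminus of a sfGFP-mCherry timer. Cells are FACS-sorted into 8 mCherry/sfGFP bins and deep-sequenced. PSI runs from 0 (unstable) to 1 (stable). Backgrounds are wild type, das1Δ and doa10Δ at 30 °C, and wild type, das1Δ, cdc34-1 and cdc53-1 at 37 °C; 2-3 technical replicates each.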

Saccharomyces cerevisiae [2] = test: as above; details: genetic background: wild type; temperature: 30 C
[3] = genetic background: cdc34-1, temperature: 37 C
[4] = genetic background: cdc53-1, temperature: 37 C
[5] = genetic background: das1 deletion, temperature: 30 C
[6] = genetic background: das1 deletion, temperature: 37 C
[7] = genetic background: doa10 deletion, temperature: 30 C
[8] = genetic background: wild type, temperature: 30 C
[9] = genetic background: wild type, temperature: 37 C
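Note: PSI is a weighted mean of sequencing reads over stability bins, variants kept only with over 10 reads, mCherry proximal and sfGFP distal, peptide attached via GGGS linker.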

| Sequence | protein stability index (Saccharomyces cerevisiae [1]; [3]) | protein stability index (Saccharomyces cerevisiae [1]; [4]) | protein stability index (Saccharomyces cerevisiae [1]; [5]) | protein stability index (Saccharomyces cerevisiae [1]; [6]) | protein stability index (Saccharomyces cerevisiae [1]; [7]) | protein stability index (Saccharomyces cerevisiae [1]; [8]) | protein stability index (Saccharomyces cerevisiae [1]; [9]) | protein stability index (Saccharomyces cerevisiae [2]) |
| --- | --- | --- | --- | --- | --- | --- | --- | --- |
| KWGRFQQVMVIN | 0.558 ± 0.037 | 0.664 ± 0.014 | 0.5 ± 0.029 | 0.641 ± 0.0096 | 0.136 ± 0.0045 | 0.156 ± 0.022 | 0.34 ± 0.025 | 0.266 ± 0.0042 |
| CIVFVYCLFSCP | 0.206 ± 0.0051 | 0.301 ± 0.038 | 0.213 ± 0.024 | 0.406 ± 0.041 | 0.209 ± 0.0024 | 0.207 ± 0.036 | 0.332 ± 0.027 | 0.32 ± 0.0041 |
| VCVFFRLCIVWY | 0.061 ± 0.0092 | 0.101 ± 0.0031 | 0.127 ± 0.017 | 0.171 ± 0.0065 | 0.115 ± 0.013 | 0.103 ± 0.021 | 0.145 ± 0.012 | 0.174 ± 0.036 |
| FMPFSLLALFVW | 0.286 ± 0.00069 | 0.318 ± 0.0033 | 0.267 ± 0.02 | 0.372 ± 0.0064 | 0.2321 ± 0.0021 | 0.241 ± 0.041 | 0.328 ± 0.0069 | 0.343 ± 0.017 |
| PFFLLAGITVAC | 0.0507 ± 0.023 | 0.0625 ± 0.026 | 0.177 ± 0.031 | 0.203 ± 0.0027 | 0.139 ± 0.0038 | 0.15 ± 0.025 | 0.16 ± 0.0058 | 0.273 ± 0.016 |
| EKKRERQKGEME | 0.656 ± 0.055 | 0.7542 ± 0.0053 | 0.6109 ± 0.0056 | 0.72 ± 0.027 | 0.627 ± 0.026 | 0.635 ± 0.014 | 0.717 ± 0.012 | 0.579 ± 0.12 |
| FLFPFLSVLFLL | 0.477 ± 0.014 | 0.506 ± 0.0071 | 0.479 ± 0.03 | 0.5591 ± 0.0049 | 0.176 ± 0.0088 | 0.176 ± 0.0083 | 0.232 ± 0.014 | 0.245 ± 0.034 |
| VWFLLFVVWCGS | 0.212 ± 0.01 | 0.282 ± 0.024 | 0.217 ± 0.022 | 0.384 ± 0.0055 | 0.186 ± 0.021 | 0.204 ± 0.034 | 0.316 ± 0.0071 | 0.309 ± 0.031 |
| FGFFLFIFFFFR | 0.246 ± 0.044 | 0.295 ± 0.027 | 0.301 ± 0.032 | 0.429 ± 0.015 | 0.333 ± 0.0034 | 0.276 ± 0.039 | 0.349 ± 0.031 | 0.402 ± 0.12 |
| RFGLPLLVVTWL | 0.445 ± 0.0073 | 0.46 ± 0.0074 | 0.394 ± 0.028 | 0.5314 ± 0.005 | 0.4591 ± 0.0032 | 0.402 ± 0.0044 | 0.512 ± 0.011 | 0.468 ± 0.043 |
| FLRLSFLIFPLH | 0.546 ± 0.029 | 0.6295 ± 0.00058 | 0.471 ± 0.03 | 0.583 ± 0.0021 | 0.396 ± 0.026 | 0.409 ± 0.023 | 0.546 ± 0.029 | 0.498 ± 0.02 |
| TRHIGQYIHKIT | 0.641 ± 0.048 | 0.734 ± 0.027 | 0.635 ± 0.027 | 0.694 ± 0.037 | 0.151 ± 0.0037 | 0.233 ± 0.049 | 0.436 ± 0.0061 | 0.339 ± 0.081 |
| VFLACSMTGGDA | 0.256 ± 0.029 | 0.326 ± 0.022 | 0.373 ± 0.067 | 0.27 ± 0.0086 | 0.413 ± 0.021 | 0.36 ± 0.049 | 0.264 ± 0.016 | 0.331 ± 0.022 |
| PWFCYVQLVVPV | 0.226 ± 0.02 | 0.266 ± 0.0075 | 0.232 ± 0.035 | 0.349 ± 0.0058 | 0.188 ± 0.0072 | 0.221 ± 0.03 | 0.313 ± 0.0036 | 0.309 ± 0.0036 |
| FLLEVFVLGRTL | 0.627 ± 0.0076 | 0.653 ± 0.023 | 0.43 ± 0.018 | 0.597 ± 0.0081 | 0.402 ± 0.032 | 0.432 ± 0.022 | 0.577 ± 0.012 | 0.4742 ± 0.0019 |
| PVCRQVGVRLVA | 0.582 ± 0.022 | 0.625 ± 0.052 | 0.525 ± 0.025 | 0.6482 ± 0.0047 | 0.265 ± 0.0046 | 0.311 ± 0.034 | 0.466 ± 0.039 | 0.456 ± 0.045 |
| GGGVGVVWVRLG | 0.429 ± 0.03 | 0.678 ± 0.035 | 0.618 ± 0.013 | 0.72 ± 0.024 | 0.0905 ± 0.017 | 0.114 ± 0.014 | 0.137 ± 0.017 | 0.256 ± 0.028 |
| RWALPALWAYAA | 0.493 ± 0.029 | 0.715 ± 0.034 | 0.583 ± 0.025 | 0.7029 ± 0.007 | 0.0884 ± 0.011 | 0.105 ± 0.012 | 0.16 ± 0.05 | 0.146 ± 0.094 |
| LYLCLVSPVVVL | 0.156 ± 0.011 | 0.172 ± 0.0061 | 0.226 ± 0.024 | 0.296 ± 0.0064 | 0.184 ± 0.011 | 0.204 ± 0.032 | 0.2571 ± 0.0014 | 0.296 ± 0.029 |
| TLLSSIFLCLVL | 0.575 ± 0.018 | 0.6448 ± 0.0023 | 0.477 ± 0.031 | 0.6128 ± 0.0011 | 0.466 ± 0.012 | 0.462 ± 0.024 | 0.574 ± 0.022 | 0.541 ± 0.1 |
| FVWAVGLVSASV | 0.507 ± 0.0064 | 0.527 ± 0.0082 | 0.402 ± 0.022 | 0.561 ± 0.0067 | 0.379 ± 0.013 | 0.414 ± 0.03 | 0.52 ± 0.0091 | 0.503 ± 0.01 |
| VTVWVFVFLRGL | 0.319 ± 0.0069 | 0.393 ± 0.015 | 0.315 ± 0.029 | 0.454 ± 0.029 | 0.294 ± 0.0043 | 0.302 ± 0.019 | 0.453 ± 0.0035 | 0.374 ± 0.052 |
| WQIGIYILQGLA | 0.271 ± 0.03 | 0.316 ± 0.0064 | 0.242 ± 0.04 | 0.389 ± 0.018 | 0.146 ± 0.011 | 0.163 ± 0.049 | 0.262 ± 0.015 | 0.256 ± 0.023 |
| FLASLCFFPLLC | 0.388 ± 0.041 | 0.413 ± 0.031 | 0.42 ± 0.027 | 0.5574 ± 0.0039 | 0.496 ± 0.024 | 0.372 ± 0.02 | 0.5038 ± 0.0034 | 0.456 ± 0.014 |
| VFFGLYLVTFTS | 0.219 ± 0.036 | 0.302 ± 0.045 | 0.222 ± 0.026 | 0.379 ± 0.013 | 0.196 ± 0.015 | 0.202 ± 0.025 | 0.3575 ± 0.0028 | 0.409 ± 0.042 |
| FPCIFFFCLFIL | 0.209 ± 0.039 | 0.197 ± 0.0039 | 0.251 ± 0.027 | 0.337 ± 0.025 | 0.31 ± 0.013 | 0.203 ± 0.021 | 0.276 ± 0.016 | 0.271 ± 0.05 |
| VGVVLWVWGLGD | 0.533 ± 0.026 | 0.6012 ± 0.0037 | 0.409 ± 0.033 | 0.636 ± 0.022 | 0.423 ± 0.0063 | 0.426 ± 0.032 | 0.61 ± 0.03 | 0.446 ± 0.035 |
| LFLSIFFFHLLF | 0.314 ± 0.023 | 0.251 ± 0.049 | 0.338 ± 0.041 | 0.4359 ± 0.0036 | 0.439 ± 0.045 | 0.313 ± 0.01 | 0.385 ± 0.041 | 0.37 ± 0.033 |
| GGVWLSVVSWVG | 0.156 ± 0.0086 | 0.238 ± 0.03 | 0.0995 ± 0.024 | 0.256 ± 0.012 | 0.0676 ± 0.00079 | 0.0976 ± 0.011 | 0.244 ± 0.0053 | 0.167 ± 0.021 |
| CLCVLVSFFFGL | 0.41 ± 0.037 | 0.489 ± 0.041 | 0.35 ± 0.024 | 0.5006 ± 0.0024 | 0.316 ± 0.024 | 0.323 ± 0.027 | 0.4768 ± 0.0016 | 0.288 ± 0.074 |
